Source: patent US20140370022A1 (SAMSUNG LIFE PUBLIC WELFARE FOUNDATION, published 2014)
Each block holds one binder with its values, some of them ahead of it.

What was measured:
[1] = molecular target: c-Met protein (species and construct not stated); assay: SPR, Biacore T100, c-Met amine-coupled on CM5 chip, scFv as analyte
Excerpt: For the confirmation of more accurate binding affinity (coupling constant), the binding affinity of respective clones to c-Met was verified through surface plasmon resonance analysis. Respective antibody fragments were expressed in the host E. coli, followed by purification, and then dialyzed with PBS solution. Biacore T100 (GE healthcare) was used for the analysis. The c-Met protein was fixed to a dextran medium through an amine coupling reaction in the CM5 sensor chip. […] Based on these values, kinetic analysis was conducted through the BIA-evaluation program. As a result, the KD values of the 1F12 and 2A01 clones were measured to be 6⁻⁹×10⁻⁸ M and the Kd value of 2C03 was verified to be 10⁻⁷ M (Table 4).

[2] = molecular target: T1, mouse c-Met-Fc protein (mouse c-Met extracellular domain + Fc) (mouse, UniProt P16056 25-931); assay: ELISA, periplasmic scFv-pIII extract on coated mouse c-Met-Fc, anti-HA-HRP, OD450 as ratio to control coat (BSA, IgG)
T1 construct: extracellular domain; not shown: Fc region of IgG
T1 sequence (P16056 25-931): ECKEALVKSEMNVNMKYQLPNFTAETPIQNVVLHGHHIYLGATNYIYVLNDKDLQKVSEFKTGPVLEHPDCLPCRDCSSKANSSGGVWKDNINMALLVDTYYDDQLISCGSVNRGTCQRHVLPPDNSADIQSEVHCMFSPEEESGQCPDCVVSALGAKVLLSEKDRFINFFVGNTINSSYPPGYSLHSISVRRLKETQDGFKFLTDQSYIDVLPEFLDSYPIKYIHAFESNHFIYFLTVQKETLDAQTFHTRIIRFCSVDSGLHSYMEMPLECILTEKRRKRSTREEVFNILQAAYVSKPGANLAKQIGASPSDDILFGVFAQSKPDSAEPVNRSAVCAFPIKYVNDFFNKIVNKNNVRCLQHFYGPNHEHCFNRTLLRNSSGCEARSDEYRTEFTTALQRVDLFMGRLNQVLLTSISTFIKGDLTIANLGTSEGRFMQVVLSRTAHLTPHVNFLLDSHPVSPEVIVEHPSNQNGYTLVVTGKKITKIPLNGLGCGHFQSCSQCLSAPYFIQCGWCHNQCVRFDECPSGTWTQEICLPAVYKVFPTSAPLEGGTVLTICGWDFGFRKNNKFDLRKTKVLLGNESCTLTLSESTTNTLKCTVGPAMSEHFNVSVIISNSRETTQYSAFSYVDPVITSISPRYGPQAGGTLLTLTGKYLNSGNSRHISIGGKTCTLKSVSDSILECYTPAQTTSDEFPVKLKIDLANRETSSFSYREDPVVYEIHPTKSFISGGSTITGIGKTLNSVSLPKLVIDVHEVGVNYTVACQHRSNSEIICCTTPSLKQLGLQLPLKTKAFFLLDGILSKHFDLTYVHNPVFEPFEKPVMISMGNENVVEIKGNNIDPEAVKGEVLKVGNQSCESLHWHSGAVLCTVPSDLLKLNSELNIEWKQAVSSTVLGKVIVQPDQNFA
Method: After a total of six rounds of panning with mouse/human c-Met were finished, the phage particles collected from the final round of panning were confirmed as colonies in the medium through infection of host cells. These colonies were taken and inoculated in a 96 well plate containing 200 μl of SB/ampicillin media and then cultured (37° C., within 3 hours). After that, for the induction of scFv-pIII protein expression, 1 mM final concentration IPTG was added to each well, followed by culturing overnight at 30° C. After that, the cultured plate was centrifuged to discard the supernatant. Then, for the collection of periplasmic fractions from the cultured cells in each well, the culture plate was treated with 40 μl of TES solution (20% w/v sucrose, 50 mM Tris, 1 mM EDTA, pH 8.0) maintained at 4° C., and then kept to stand at 4° C. for 30 minutes, so that the cells were lysed. After that, the cells were treated with 60 μl of 0.2×TES solution, and then kept to stand for 30 minutes. Finally, the plate was centrifuged and the supernatant was collected, thereby producing scFv-pIII protein on a small scale.
At the same time, a 96 well plate coated with human or mouse c-Met-Fc protein was prepared, and then 25 μl of aliquot was taken from the collected periplasmic fractions and added to each well, followed by binding for 1 hour. Then, after three or four times of washing procedures were performed using TBST, anti-HA-HRP antibody was added, followed by binding for 1 hour. The plate was again washed, followed by induction of a color development reaction (TMB substrate), and then the values of color development were measured at O.D. 450 nm. […] Since antibody in which c-Met extracellular domain binds to Fc region of IgG was used at the time of the panning, commercialized antibody (Erbitux) or BSA protein was used as a control group in order to exclude the phage particles that bind to Fc region.

Control (BSA) = molecular target: T2, Control (BSA) (Bos taurus, UniProt P02769); assay: ELISA, 5 ug/ml scFv on coated Control (BSA), anti-HA-HRP
T2 construct: coated as control protein; also called BSA protein
T2 sequence (P02769 25-607 limits assumed): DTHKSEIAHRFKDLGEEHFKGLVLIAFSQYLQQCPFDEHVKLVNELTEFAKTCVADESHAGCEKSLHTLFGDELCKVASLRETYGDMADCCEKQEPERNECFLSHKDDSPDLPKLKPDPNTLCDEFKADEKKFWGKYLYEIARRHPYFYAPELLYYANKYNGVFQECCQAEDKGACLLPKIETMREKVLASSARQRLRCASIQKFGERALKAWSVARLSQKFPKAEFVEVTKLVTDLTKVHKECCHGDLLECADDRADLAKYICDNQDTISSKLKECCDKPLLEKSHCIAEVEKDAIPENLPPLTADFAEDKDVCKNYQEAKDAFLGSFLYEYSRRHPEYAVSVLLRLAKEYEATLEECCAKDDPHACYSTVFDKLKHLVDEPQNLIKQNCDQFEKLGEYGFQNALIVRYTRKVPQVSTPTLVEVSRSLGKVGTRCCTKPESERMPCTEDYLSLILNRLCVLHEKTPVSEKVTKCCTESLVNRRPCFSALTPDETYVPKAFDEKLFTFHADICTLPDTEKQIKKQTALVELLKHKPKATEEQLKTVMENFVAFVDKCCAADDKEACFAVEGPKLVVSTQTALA
Method: (§1) By using the produced scFv protein, the binding affinity to human/mouse c-Met extracellular domain+Fc protein was confirmed through ELISA. Human/mouse c-Met coated on a 96-well plate were treated with 5 μg/ml of scFv proteins (1F12, 2A01, 2C03, and 2D05), followed by binding at room temperature for 1 hour. After that, the plate was washed three times with 0.1% TBST solution, and then treated with anti-HA-HRP antibody for 1 hour, to detect the scFv proteins that bind to c-Met. After that, the plate was washed three times, and then treated with 10 μl of TMB substrate, followed by standing for 5 minutes. The reaction was stopped by using sulfuric acid solution, and then the absorbance was determined by ELISA reader. As a result, it was verified that each scFv protein had significant binding affinity to human and mouse c-Met proteins as compared with the control group (IgG, BSA) (FIG. 5A). In addition, after the cells were treated with 500 ng/ml of each scFv protein using human c-Met protein to which Fc region was not bound, the same ELISA assay was conducted.

[3] = molecular target: T3, human c-Met-Fc protein (human c-Met extracellular domain + Fc) (human, UniProt P08581 25-932); assay: ELISA, scFv titrated 2-fold from 500 ng/ml on coated human c-Met, anti-HA-HRP, no HGF
T3 construct: extracellular domain; also called c-Met extracellular domain+Fc protein; not shown: Fc region of IgG
T3 sequence (P08581 25-932): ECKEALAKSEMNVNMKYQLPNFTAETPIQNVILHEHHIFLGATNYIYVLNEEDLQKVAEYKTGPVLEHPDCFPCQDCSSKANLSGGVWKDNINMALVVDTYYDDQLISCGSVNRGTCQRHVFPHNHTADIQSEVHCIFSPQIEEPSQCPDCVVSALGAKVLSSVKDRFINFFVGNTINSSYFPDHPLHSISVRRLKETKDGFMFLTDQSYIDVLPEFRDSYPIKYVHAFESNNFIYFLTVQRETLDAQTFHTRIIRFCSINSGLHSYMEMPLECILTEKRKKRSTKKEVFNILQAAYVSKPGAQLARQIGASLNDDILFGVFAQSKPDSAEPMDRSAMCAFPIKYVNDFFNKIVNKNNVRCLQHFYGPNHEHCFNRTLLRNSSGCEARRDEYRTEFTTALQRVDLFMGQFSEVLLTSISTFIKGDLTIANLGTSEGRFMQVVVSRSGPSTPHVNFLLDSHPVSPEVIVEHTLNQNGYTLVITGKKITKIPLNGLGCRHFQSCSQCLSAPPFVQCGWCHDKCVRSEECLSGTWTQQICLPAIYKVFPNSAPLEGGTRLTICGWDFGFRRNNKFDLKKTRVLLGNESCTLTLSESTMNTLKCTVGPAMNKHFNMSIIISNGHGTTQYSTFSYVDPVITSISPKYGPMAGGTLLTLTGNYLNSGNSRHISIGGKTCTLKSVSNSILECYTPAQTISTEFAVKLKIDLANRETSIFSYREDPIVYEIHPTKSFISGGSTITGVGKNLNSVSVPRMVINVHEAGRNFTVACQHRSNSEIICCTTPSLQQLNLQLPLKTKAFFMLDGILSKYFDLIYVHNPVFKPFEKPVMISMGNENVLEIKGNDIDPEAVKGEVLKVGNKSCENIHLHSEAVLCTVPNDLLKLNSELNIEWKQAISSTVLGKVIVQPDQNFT
Method: as §1, with “Human/mouse c-Met coated on a 96-well plate were treated with 5 μg/ml of scFv proteins (1F12, 2A01, 2C03, and 2D05), followed by binding at room temperature for 1 hour.” left out
For the verification of whether the selected scFv proteins have competitive binding affinity with the hepatocyte growth factor, which is the ligand of c-Met, the ligand competitive ELISA experiment was conducted. As in examples 2 and 4, the coated human c-Met was prepared, and respective wells were treated with samples in which each scFv protein was diluted at a 2-fold dilution from 500 ng/ml to about 1 ng/ml. After the treatment, the experiment procedure was conducted as in Example 4.

c-Met protein (species and construct not stated), sequence (P08581 whole entry, the tested form may be a part): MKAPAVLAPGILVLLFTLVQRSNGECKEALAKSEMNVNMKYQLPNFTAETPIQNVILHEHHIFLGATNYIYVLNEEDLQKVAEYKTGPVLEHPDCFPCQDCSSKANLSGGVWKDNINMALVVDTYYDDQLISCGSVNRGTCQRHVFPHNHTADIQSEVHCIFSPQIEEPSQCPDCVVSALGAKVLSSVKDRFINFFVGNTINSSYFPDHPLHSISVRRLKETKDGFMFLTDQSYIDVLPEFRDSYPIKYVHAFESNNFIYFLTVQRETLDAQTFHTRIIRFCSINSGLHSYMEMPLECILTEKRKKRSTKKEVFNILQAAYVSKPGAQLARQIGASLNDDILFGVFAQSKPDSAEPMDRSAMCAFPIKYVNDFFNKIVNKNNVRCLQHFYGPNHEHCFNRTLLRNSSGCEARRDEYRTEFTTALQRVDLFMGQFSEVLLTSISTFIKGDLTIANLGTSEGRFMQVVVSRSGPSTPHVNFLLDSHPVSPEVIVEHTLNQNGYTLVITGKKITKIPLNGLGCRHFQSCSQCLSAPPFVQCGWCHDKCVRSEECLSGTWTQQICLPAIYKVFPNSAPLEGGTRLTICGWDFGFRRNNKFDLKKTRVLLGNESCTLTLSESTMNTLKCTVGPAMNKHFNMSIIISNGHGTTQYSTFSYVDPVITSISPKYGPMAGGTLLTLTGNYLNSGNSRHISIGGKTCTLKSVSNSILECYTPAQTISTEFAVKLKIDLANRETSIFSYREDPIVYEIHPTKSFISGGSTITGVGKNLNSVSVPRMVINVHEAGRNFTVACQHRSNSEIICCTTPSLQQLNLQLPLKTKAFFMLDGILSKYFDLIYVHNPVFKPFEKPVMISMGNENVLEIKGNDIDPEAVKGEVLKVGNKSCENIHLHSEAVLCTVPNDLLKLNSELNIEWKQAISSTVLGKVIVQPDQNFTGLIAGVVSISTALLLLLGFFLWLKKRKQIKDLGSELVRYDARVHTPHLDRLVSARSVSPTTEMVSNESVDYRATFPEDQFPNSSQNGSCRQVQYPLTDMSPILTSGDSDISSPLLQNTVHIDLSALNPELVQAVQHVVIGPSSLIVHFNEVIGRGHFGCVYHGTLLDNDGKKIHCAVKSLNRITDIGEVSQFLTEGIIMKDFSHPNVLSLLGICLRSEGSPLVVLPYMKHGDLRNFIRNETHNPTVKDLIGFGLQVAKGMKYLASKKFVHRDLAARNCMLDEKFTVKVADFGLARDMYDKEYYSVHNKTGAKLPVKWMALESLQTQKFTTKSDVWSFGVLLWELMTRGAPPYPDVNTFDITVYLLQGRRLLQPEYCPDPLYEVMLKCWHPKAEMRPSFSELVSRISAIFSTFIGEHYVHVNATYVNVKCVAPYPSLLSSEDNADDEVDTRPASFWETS

Kd [1]: 239 nM | koff [1]: 0.186 s⁻¹ | kon [1]: 776000 M⁻¹ s⁻¹ | binding result [2]: binds | binding result (Control (BSA)): no binding (tested: 5 ug/ml)
B1: 2C03 scFv antibody fragment (scFv)
scFv: EVQLLESGGGLVQPGGSLRLSCAASGFTFSNYAMSWVRQAPGKGLEWVSAISYDSGSIYYADSVKGRFTISRDNSKNTLYLQMNSLRAEDTAVYYCAKAARSCRNWSCSYANGMDVWGQGTLVTVSSGGGGSGGGGSGGGGSQSVLTQPPSASGTPGQRVTISCTGSSSNIGSNYVSWYRQLPGTAPKLLIYSDSNRPSGVPDRFSGSKSGTSASLAISGLRSEDEADYYCGSWDDSLSGYVFGGGTKLTVL
notes: Soluble scFv of about 28 kDa expressed in E. coli TOP10F' and purified over Ni-NTA; also called 2C03 clone; 2CO3

Kd [1]: 93.3 nM | EC50 (read off the curve) [3]: ~0.04 µg/mL | binding result [2]: binds | binding result (Control (BSA)): no binding (tested: 5 ug/ml)
B2: 1F12 scFv antibody fragment (scFv)
scFv: EVQLLESGGGLVQPGGSLRLSCAASGFTFSNYAMSWVRQAPGKGLEWVSGISYSGGSTYYADSVKGRFTISRDNSKNTLYLQMNSLRAEDTAVYYCAKASRSCQRPACSYANGMDVWGQGTLVTVSSGGGGSGGGGSGGGGSQSVLTQPPSASGTPGQRVTISCTGSSSNIGNNYVTWYQQLPGTAPKLLIYYNNHRPSGVPDRFSGSKSGTSASLAISGLQSEDEADYYCGSWDYSLSAYVFGGGTKLTVL
notes: Soluble scFv of about 28 kDa expressed in E. coli TOP10F' and purified over Ni-NTA; also called 1F12 clone

Kd [1]: 66 nM | koff [1]: 0.153 s⁻¹ | kon [1]: 2.32e+06 M⁻¹ s⁻¹ | binding result [2]: binds | binding result (Control (BSA)): no binding (tested: 5 ug/ml)
B3: 2A01 scFv antibody fragment (scFv)
scFv: EVQLLESGGGLVQTGGSLRLSCAASGFTFSSYDMSWVRRAPGKGLEWVSWISHGGSSISYADSVKGRFTISRDNSKNTLYLQMNSLRAEDTAVYYCAKDAYPIRQETFDYWGQGTLVTVSSGGGGSGGGGSGGGGSQSVLTQPPSASGTPGQRVTISCSGSSSNIGNNDVSWYQQLPGTAPKLLIYPDSQRPSGVPDRFSGSKSGTSASLAISGLRSEDEADYYCASWDSSLSGYVFGGGTKLTVL
notes: Soluble scFv of about 28 kDa expressed in E. coli TOP10F' and purified over Ni-NTA; also called 2A01 clone; 2A1
